In assay [1] the target is SARS-Cov-2 spike on lentiviral pseudovirus (SARS-Cov-2, UniProt P0DTC2 14-1273). Kind of assay: cell-based or functional assay.
The target in a further assay is T1, SARS-Cov-1-RBD-hFc (SARS-Cov-1, UniProt P59594 306-527).
T1 construct: domain: RBD
The assay can be described thus: phage ELISA, antigen coated at 5 μg/ml, anti-M13-HRP.

B1: 4C5-hFc重组蛋白 (Fc fusion)
chain: EVQLLESGGGLVQPGGSLRLSCAASDFYFADYEMSWVRQAPGKGLEWIGSIYHSGSTYYNPSLKSRVTISRDNSKNTLYLQMNSLRAEDTAMYYCAREWHSGYDYWGQGTLVTVSS
Consider B1, for which, in assay [1], the “IC50 of pseudovirus infection of ACE2-CHO cells (Luciferase活性)” value (from here on “IC50”) amounted to 2.32 µg/mL.

B2: 4C5噬菌体 (single-domain antibody 4C5 displayed on phage) (VHH)
VHH: EVQLLESGGGLVQPGGSLRLSCAASDFYFADYEMSWVRQAPGKGLEWIGSIYHSGSTYYNPSLKSRVTISRDNSKNTLYLQMNSLRAEDTAMYYCAREWHSGYDYWGQGTLVTVSS
notes: also called 抗体4C5
As to B2, the binding result with SARS-Cov-1-RBD-hFc is “no binding”.

B3: 4D5-hFc重组蛋白 (Fc fusion)
chain: EVQLLESGGGLVQPGGSLRLSCAASSFDFSSYEMSWVRQAPGKALEWIGEIHHSGSTYYNPSLKSRVTISRDNSKNTLYLQMNSLRAEDTAMYYCVKDLGFADHWGQGTLVTVSS
B3: the “IC50” value in assay [1] was found to be 1.13 µg/mL.

B4: 4D5噬菌体 (single-domain antibody 4D5 displayed on phage) (VHH)
VHH: EVQLLESGGGLVQPGGSLRLSCAASSFDFSSYEMSWVRQAPGKALEWIGEIHHSGSTYYNPSLKSRVTISRDNSKNTLYLQMNSLRAEDTAMYYCVKDLGFADHWGQGTLVTVSS
notes: also called 抗体4D5
Turning to B4, the binding result in the assay with SARS-Cov-1-RBD-hFc is on record as “no binding”.

B5: 4A12-hFc重组蛋白 (Fc fusion)
chain: EVQLLESGGGLVQPGGSLRLSCAASDFAFSSYEMSWVRQAPGKGLEWIGEIHHSGSTYYNPSLKSLVTISRDNSKNTLYLQMNSLRAEDTAVYYCVKDFGHLGQMASWGQGTLVTVSS
For the molecule B5, the “IC50” value in assay [1] was determined as 0.19 µg/mL.

B6: 4A12噬菌体 (single-domain antibody 4A12 displayed on phage) (VHH)
VHH: EVQLLESGGGLVQPGGSLRLSCAASDFAFSSYEMSWVRQAPGKGLEWIGEIHHSGSTYYNPSLKSLVTISRDNSKNTLYLQMNSLRAEDTAVYYCVKDFGHLGQMASWGQGTLVTVSS
notes: also called 抗体4A12
Take B6: the binding result in the assay with SARS-Cov-1-RBD-hFc is recorded as “no binding”.

B7: 4A10-hFc重组蛋白 (Fc fusion)
chain: EVQLLESGGGLVQPGGSLRLSCAASSFDFSDYEMSWVRQAPGKGLEWIGEIHHSGSTYYNPSLKSRVTISRDNSKNTLYLQMNSLRAEDTATYYCVKDFVVGETAEFSYWGQGTLVTVSS
Regarding B7, the “IC50” value in assay [1] came out at 0.66 µg/mL.

B8: 4A10噬菌体 (single-domain antibody 4A10 displayed on phage) (VHH)
VHH: EVQLLESGGGLVQPGGSLRLSCAASSFDFSDYEMSWVRQAPGKGLEWIGEIHHSGSTYYNPSLKSRVTISRDNSKNTLYLQMNSLRAEDTATYYCVKDFVVGETAEFSYWGQGTLVTVSS
notes: also called 抗体4A10
For B8, the binding result with SARS-Cov-1-RBD-hFc was “no binding”.

For the origin of these results see CN111647076A (UNIV NANJING MEDICAL, dated 2020).
